The text below walks through data of article PMC9295680 (Plant Direct, 2022).

Where two headings read alike, the source gives them in different places.

What all share (experiment): SEC-MALS
In data set [1] the target is homospermidine synthase (HSS) from Distimake quinquefolius individuum 1 (Distimake quinquefolius).
In data set [2] the target is homospermidine synthase (HSS) from Ipomoea alba (Ipomoea alba).
The target in data set [3] is homospermidine synthase (HSS) from Distimake quinquefolius individuum 2 (Distimake quinquefolius).
Data set [4] concerns the molecule itself.
Data set [5] deals with the molecule itself. This is another data set of the same source.

As usually defined, the stoichiometry N is a count of units in the complex or per binding partner. In data set [1], “homospermidine synthase (HSS) from Distimake quinquefolius individuum 1 (enzyme)” had a stoichiometry N of 4.
In data set [2], “homospermidine synthase (HSS) from Ipomoea alba (enzyme)” came in with a stoichiometry N of 4.
Consider “homospermidine synthase (HSS) from Distimake quinquefolius individuum 2 (enzyme)”, for which the stoichiometry N in data set [3] was 4.

B1: homospermidine synthase (HSS) from Camonea umbellata (enzyme, UniProt A0A6M4MJB9 1-377, looked up)
chain: MGEATRDQNSTMDSAHAAVFKKSESLDGACMKIEGYDFNRGIDYPQLLKSLLSTGFQASNLGEAIQIVNEMLDWRLSHEPIMEDCNDKEKDPAYRDSVTTKIFLGFTSNLVSSGVRETIRYLVQHHMVDVVVTTAGGIEEDLIKCLAPTYKGEFSLRGSVLRSKGLNRIGNLLVPNDNYCKFEDWIIPIFDQMYEEQTKQNVLWTPSKVIARLGKEINDESSYLYWAYKNEIPVFCPSLTDGSLGDMLYFHSFTKEVADNSDRNPGLIVDIVGDIRAMDGEAVHAGSRKTGVLILGGGLPKHHICNANMMRNGADFAAYINTAQEFDGSDSGARPDEAVSWGKIRCEAKTVKVHCDATIAFPLLVAETFATKARKLH
Regarding B1, the “stoichiometry N” value in data set [4] is 2; in data set [5], 4.
